Common to all, as to assay: proximity ligation
In test [1] the target is full-length WT V5-RTEL1 (mouse) (mouse).
The target of test [2] is double-mutant V5-RTEL1^C1252A/C1255A (mouse) (mouse).
Test [3] deals with single-mutant V5-RTEL1^R1237H (mouse) (mouse).

Our source for the PLA foci per nucleus (foci per nucleus) and PLA foci per nucleus (PLA foci per nucleus) values is article PMC4339303.

Sequence of full-length WT V5-RTEL1 (mouse) (mouse) (Q0VGM9 whole entry): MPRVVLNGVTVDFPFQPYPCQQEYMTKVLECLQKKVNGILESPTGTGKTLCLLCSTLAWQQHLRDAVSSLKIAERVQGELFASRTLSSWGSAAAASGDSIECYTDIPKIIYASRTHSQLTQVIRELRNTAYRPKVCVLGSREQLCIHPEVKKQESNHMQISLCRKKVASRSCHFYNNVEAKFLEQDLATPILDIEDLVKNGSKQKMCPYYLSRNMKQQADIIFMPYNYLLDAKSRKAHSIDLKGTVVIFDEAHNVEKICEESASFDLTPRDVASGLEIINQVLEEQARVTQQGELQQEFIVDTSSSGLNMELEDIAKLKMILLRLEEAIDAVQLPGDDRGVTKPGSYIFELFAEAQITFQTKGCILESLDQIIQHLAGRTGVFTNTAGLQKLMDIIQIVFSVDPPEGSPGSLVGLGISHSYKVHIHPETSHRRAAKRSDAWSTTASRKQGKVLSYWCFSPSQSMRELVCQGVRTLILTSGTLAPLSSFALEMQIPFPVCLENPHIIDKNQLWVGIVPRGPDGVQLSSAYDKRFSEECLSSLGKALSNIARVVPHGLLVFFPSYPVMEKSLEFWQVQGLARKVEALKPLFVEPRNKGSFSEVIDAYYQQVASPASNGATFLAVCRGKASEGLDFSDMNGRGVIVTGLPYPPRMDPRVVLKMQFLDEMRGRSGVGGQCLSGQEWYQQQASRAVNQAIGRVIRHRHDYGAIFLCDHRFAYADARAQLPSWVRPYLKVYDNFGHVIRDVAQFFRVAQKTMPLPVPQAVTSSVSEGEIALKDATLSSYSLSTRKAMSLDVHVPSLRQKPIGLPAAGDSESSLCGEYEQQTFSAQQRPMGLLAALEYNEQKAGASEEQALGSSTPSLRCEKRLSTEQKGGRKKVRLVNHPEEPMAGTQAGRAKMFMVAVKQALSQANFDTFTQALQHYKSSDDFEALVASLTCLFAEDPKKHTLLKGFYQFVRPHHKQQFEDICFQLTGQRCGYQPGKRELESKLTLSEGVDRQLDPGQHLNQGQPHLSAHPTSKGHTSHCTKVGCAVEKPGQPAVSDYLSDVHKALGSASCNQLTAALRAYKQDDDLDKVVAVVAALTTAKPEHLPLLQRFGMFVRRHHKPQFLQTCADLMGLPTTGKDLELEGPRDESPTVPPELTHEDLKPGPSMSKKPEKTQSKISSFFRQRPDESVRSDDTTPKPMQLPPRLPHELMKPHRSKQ

Turning to “endogenous PCNA (proliferating cell nuclear antigen) (from UniProt P17918 1-261) (natural protein)”, the PLA foci per nucleus (foci per nucleus) in test [1] is 11.5. For the same substance, the PLA foci per nucleus (PLA foci per nucleus) in test [2] is 11.6; in test [3], 13.4.
